Key:
[1] = molecular target: T1, mutant R3.28A LPA3 receptor (Homo sapiens, UniProt Q9UBY5, R105A); assay: Intracellular Ca2+ in B103 cells with mutant R3.28A LPA3 receptor; assay type: cell-based; settings: R3.28A LPA3 receptor-transfected B103 cells
T1 construct: expressed in transfected cells; host or cells: B103 rat neuroblastoma cells
T1 sequence (Q9UBY5 1-353 R105A): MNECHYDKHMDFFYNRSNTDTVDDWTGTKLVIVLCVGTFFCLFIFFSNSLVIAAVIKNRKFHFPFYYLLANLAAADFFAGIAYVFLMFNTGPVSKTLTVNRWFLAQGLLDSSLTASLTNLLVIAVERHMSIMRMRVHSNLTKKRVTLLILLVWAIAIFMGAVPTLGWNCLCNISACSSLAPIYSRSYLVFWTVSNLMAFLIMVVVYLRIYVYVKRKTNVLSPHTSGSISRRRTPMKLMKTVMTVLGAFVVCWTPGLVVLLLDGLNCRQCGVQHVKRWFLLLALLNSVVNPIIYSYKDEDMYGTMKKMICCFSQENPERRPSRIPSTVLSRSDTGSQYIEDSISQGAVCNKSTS
Excerpt: That is, LPA receptors have specific amino acid residues, known as binding sites, which are responsible for interaction with LPA, and the binding of LPA to the specific amino acids starts to exert the function. This Example was configured to examine a change in the gintonin-induced intracellular calcium increase through LPA receptor activation in LPA3 receptor-expressing cells when specific amino acids of the LPA binding site in LPA receptors were mutated.
To this end, a mutant LPA receptor in which Arg3.28, known as a common LPA binding site of LPA1-LPA3 receptors, was mutated as Arg3.28Ala (that is, Arg is substituted by Ala; R3.28A) or Trp4.64, known as an LPA-binding site of LPA3 receptor was mutated as Trp4.64Ala (that is, Tip is substituted by Ala; W4.64A) (Valentine et al., J. Biol. Chem. 283, 12175-12187, 2008) was transfected to B103 cells which were then tested for the action of gintonin, in comparison with cells transfected with the wild-type. […] From the result, it is henceforth understood that the gintonin-triggered LPA receptor activation is achieved by interaction with the LPA binding sites of LPA receptors and that gintonin occupies the LPA binding sites to activate LPA receptors.

[2] = test system: mice; assay: Passive avoidance test, scopolamine-caused long-term memory impairment; assay type: in vivo, mouse
Method: ICR male mice (25-28 g), purchased from Oriental Bio (Seoul, Korea), were bred according to the guideline of the Institutional Animal Care and Use Committee of Konkuk University, and subjected to passive avoidance test to examine memory maintenance impairment and the protection of gintonin against memory impairment according to the method of Yang et al. (Yang et al., Biol Pharm Bull 32, 1710-1715, 2009).
A passive avoidance test was performed in a training chamber which was divided into two compartments (20×20×20 cm in size, each) separated by an automatically moving guillotine door (5×5 cm): one compartment was lighted while the other remained dark where metal rods installed in a lattice pattern on the bottom so as to deliver an electrical foot shock (Gemini Avoidance System, San Diego, USA).
For an acquisition trial, a mouse was first placed in the lighted compartment, facing away from the dark compartment and allowed to explore for 10 sec. After 10 sec, the guillotine door was opened and the mouse was allowed to explore freely. When the mouse entered the dark compartment with all four paws according to its habit, the guillotine door was closed, and a footshock (0.5 mA, 3 sec duration) was delivered. The latency time to enter the dark compartment was recorded (from the time the door was lifted). 120 min before experimentation, gintonin (25, 50, 100 mg/kg, p.o) was administered while tacrine (10 mg/kg, p.o) was used as a positive control. Memory impairment was induced by injecting scopolamine (0.9 mg/kg, i.p.) 30 min after gintonin or tacrine administration (Araujo et al., Prog Neuropsycopharmcol Biol Psychiatry 29, 411-422, 2005). For a negative control, a physiological saline was used.
24 Hours after the learning session, an experiment was performed without injecting gintonin. The mouse was positioned again in the lighted compartment. After 10 sec of acclimation, the latency time to enter the dark compartment was recorded (from the time the door was lifted).

[3] = test system: endogenous CaCC; settings: Xenopus oocytes; Pyo et al. 2011; cited from earlier work

B1: gintonin: ginseng-derived glycolipoprotein; structural protein of ginseng major latex-like protein (MLP151) and ribonuclease-like storage proteins; crude gintonin used in tests (protein)
chain 1: MGLTGKLICQTGIKSDGDVFHELFGTRPHHVPNITPANIQGCDLHEGEFGKVGSVVIWNYSIDGNAMIAKEEIVAIDEEDKSVTFKVVEGHLFEEFKSIVFSVHVDTKGEDNLVTWSIDYEKLNESVKDPTSYLDFLLSVTRDIEAHHLPK
chain 2: RSDYPWAMFALRLQWPAGFCEVNNACDTKSLLNTFTIHGLYPYNAKGTPALYCDGTAFDVNSVSDFLAEMHLAWPSHETNTEDIQFWEHEWKKHGRCSEALLKQTDYFRTALAFRKAFDIVGLLNQEGIYPNNDLYRPKMIKEAIKKHLNAVPEIDFTKNENSEYVLTDINVCVNQQATRFVDCPTDDATDDYRLKFVRLPSKMKFADPRTNSII
In the case of B1, the “gintonin-induced intracellular calcium increase vs wild-type” value [1] is reported as “greatly reduced”, the latency time ([2]; gintonin 25 mg/kg p.o. + scopolamine 0.9 mg/kg i.p.) is reported as 78.24 ± 7.83 s and the latency time ([2]; gintonin 50 mg/kg p.o. + scopolamine 0.9 mg/kg i.p.) is reported as 169.22 ± 12.97 s. For the same molecule, the latency time ([2]; gintonin 100 mg/kg p.o. + scopolamine 0.9 mg/kg i.p.) was 183.43 ± 10.89 s and the CaCC activation [3] was “activate endogenous Ca^2+-activated channel (CaCC)”.

From US20140234868A1, “USE FOR GLYCOLIPOPROTEIN GINTONIN, ISOLATED AND IDENTIFIED FROM GINSENG, AS A NATURAL MEDICAL-PLANT DERIVED LIGAND” (KONKUK UNIVERSITY INDUSTRIAL COOPERATION CORP., priority 2011, published 2014)
